Results: FireProtDB
Where “and” joins values, the source holds several entries; their conditions need not be identical. Equal entries are not always repeated.

Settings: whole UniProt chain shown
[1] = Homo sapiens, pH 7.4, 25 °C, Urea, CD, transition: 2, reversible: yes
[2] = Homo sapiens, pH 7.4, 25 °C, Urea, absorbance, transition: 2, reversible: yes
[3] = Homo sapiens, pH 7.4, 25 °C, Urea, fluorescence, transition: 2, reversible: yes
[4] = Homo sapiens, pH 5.2, 20 °C, GdnHCl, CD, Sodium acetate 20 mM, reversible: yes
[5] = Gallus gallus, pH 7.4, 25 °C, GdnHCl, CD, Tris 50 mM, KCl 100 mM, reversible: yes
[6] = Halobacterium salinarum (strain ATCC 700922 / JCM 11081 / NRC-1), pH 6.5, Thermal, DSC, None, reversible: no
[7] = Halobacterium salinarum (strain ATCC 700922 / JCM 11081 / NRC-1), pH 7, Thermal, DSC, Potassium phosphate 3 mM, KCl 150 mM, reversible: no
[8] = Homo sapiens, pH 6.2, 25 °C, 2-Propanol, CD, Piperazine Unknown, NaCl 30 mM, transition: 2, reversible: Yes

B1: Cytochrome b5 type B wild type, O43169 (protein)
chain: MSGSMATAEASGSDGKGQEVETSVTYYRLEEVAKRNSLKELWLVIHGRVYDVTRFLNEHPGGEEVLLEQAGVDASESFEDVGHSSDAREMLKQYYIGDIHPSDLKPESGSKDPSKNDTCKSCWAYWILPIIGAVLLGFLYRYYTSESKSS
denaturant midpoint (higher = more stable) (Homo sapiens, pH 7, 25 °C, GdmSCN, UV/visible spectrophotometer, MOPS 30mM): 1.86 M
Tm (Homo sapiens, pH 7, Thermal, UV/visible spectrophotometer, Potassium phosphate 50mM): 85.7 °C

B2: Peroxiredoxin-6 wild type, P30041 (protein)
chain: MPGGLLLGDVAPNFEANTTVGRIRFHDFLGDSWGILFSHPRDFTPVCTTELGRAAKLAPEFAKRNVKLIALSIDSVEDHLAWSKDINAYNCEEPTEKLPFPIIDDRNRELAILLGMLDPAEKDEKGMPVTARVVFVFGPDKKLKLSILYPATTGRNFDEILRVVISLQLTAEKRVATPVDWKDGDSVMVLPTIPEEEAKKLFPKGVFTKELPSGKKYLRYTPQP
denaturant m value [1]: 1.02 kcal/mol/M
denaturant midpoint (higher = more stable) [1]: 3.02 M
unfolding free energy [1]: 3.17 kcal/mol
denaturant m value [2]: 1.03 kcal/mol/M
denaturant midpoint (higher = more stable) [2]: 2.71 M
unfolding free energy [2]: 2.82 kcal/mol
denaturant m value [3]: 1.04 kcal/mol/M
denaturant midpoint (higher = more stable) [3]: 2.74 M
unfolding free energy [3]: 2.88 kcal/mol

B3: wild type, Q2YD82 (protein)
chain: MDCAEGRAANLPCNHSTISGNEYVYWYRQIHSQGPQYIIHGLKNNETNEMASLIITEDRKSSTLILPHATLRDTAVYYCIVYDYGQNFVFGPGTRLSVLPYIQNPDPAVYQLRDSKSSDKSVCLFTDFDSQTNVSQSKDSDVYITDKTVLDMRSMDFKSNSAVAWSNKSDFACANAFNNSIIPEDTFFPSPESSCDVKLVEKSFETDTNLNFQNLSVIGFRILLLKVAGFNLLMTLRLWSS
Tm (Homo sapiens, Thermal, fluorescence): 54.9 °C and 53.3 °C

B4: Arginine kinase wild type, P14208 (protein)
chain: MADAATIAKLEEGFKKLEAATDCKSLLKKYLSKDIFDSLKAKKTSLGATLLDVIQSGVENLDSGVGIYAPDAEAYSLFAPLFDPIIEDYHKGFKQTDKHPAKDFGDVSKFINVDPEGTFVISTRVRCGRSMEGYPFNPCLTEAQYKEMEEKVSSTLSGLEGELKGSYFPLTGMTKEVQQKLIDDHFLFKEGDRFLQAANACRYWPAGRGIYHNDNKTFLVWCNEEDHLRIISMQMGGDLGQVYRRLVSAVNDIEKRVPFSHHDRLGFLTFCPTNLGTTVRASVHIKLPKLAANREKLEEVAAKFSLQVRGTRGEHTEAEGGIYDISNKRRMGLTEFQAVKEMQDGILELIKIEKEM
unfolding free energy (Homarus gammarus, pH 7.4, 22 °C, GdnHCl, CD, Sodium phosphate 100 mM): 5.98 kcal/mol

B5: Metallocarboxypeptidase inhibitor wild type, P81511 (protein)
chain: MFLLVFLCCLHLVISSHTPDESFLCYQPDQVCCFICRGAAPLPSEGECNPHPTAPWCREGAVEWVPYSTGQCRTTCIPYVE
denaturant midpoint (higher = more stable) (Hirudo medicinalis, pH 8.4, 23 °C, GdnHCl, Fluorescence, Tris-HCl 0.1 M): 3.6 M
denaturant midpoint (higher = more stable) (Hirudo medicinalis, pH 8.4, 23 °C, GdnSCN, Fluorescence, Tris-HCl 0.1 M): 2.4 M

B6: Phosphoglycerate kinase wild type, P18912 (protein)
chain: MNKKTIRDVDVRGKRVFCRVDFNVPMEQGAITDDTRIRAALPTIRYLIEHGAKVILASHLGRPKGKVVEELRLDAVAKRLGELLERPVAKTNEAVGDEVKAAVDRLNEGDVLLLENVRFYPGEEKNDPELAKAFAELADLYVNDAFGAAHRAHASTEGIAHYLPAVAGFLMEKELEVLGKALSNPDRPFTAIIGGAKVKDKIGVIDNLLEKVDNLIIGGGLAYTFVKALGHDVGKSLLEEDKIELAKSFMEKAKEKGVRFYMPVDVVVADRFANDANTKVVPIDAIPADWSALDIGPKTRELYRDVIRESKLVVWNGPMGVFEMDAFAHGTKAIAEALAEALDTYSVIGGGDSAAAVEKFGLADKMDHISTGGGASLEFMEGKQLPGVVALEDK
unfolding free energy (Geobacillus stearothermophilus, pH 7.2, 25 °C, GdnHCl, Fluorescence, TEA 50 mM, reversible: no): 13.2 kcal/mol and 9.3 kcal/mol
unfolding free energy (Geobacillus stearothermophilus, pH 7.2, 25 °C, GdnHCl, Fluorescence, tri-ethanolamine 50 mM, reversible: Yes): 8.76 kcal/mol

B7: Lysozyme C wild type, P61626 (protein)
chain: MKALIVLGLVLLSVTVQGKVFERCELARTLKRLGMDGYRGISLANWMCLAKWESGYNTRATNYNAGDRSTDYGIFQINSRYWCNDGKTPGAVNACHLSCSALLQDNIADAVACAKRVVRDPQGIRAWVAWRNRCQNRDVRQYVQGCGV
unfolding free energy (Homo sapiens, pH 3, 10 °C, GdnHCl, Fluorescence, glycine-HCl 40 mM, reversible: yes): 11.8 kcal/mol
unfolding free energy (Homo sapiens, pH 4, 10 °C, GdnHCl, CD, glycine-HCl 40 mM, reversible: yes): 14 kcal/mol
denaturant m value [4]: 3.6 kcal/mol/M
denaturant midpoint (higher = more stable) [4]: 4.12 M
unfolding free energy [4]: 14.7 kcal/mol

B8: Apolipoprotein A-I wild type, P08250 (protein)
chain: MRGVLVTLAVLFLTGTQARSFWQHDEPQTPLDRIRDMVDVYLETVKASGKDAIAQFESSAVGKQLDLKLADNLDTLSAAAAKLREDMAPYYKEVREMWLKDTEALRAELTKDLEEVKEKIRPFLDQFSAKWTEELEQYRQRLTPVAQELKELTKQKVELMQAKLTPVAEEARDRLRGHVEELRKNLAPYSDELRQKLSQKLEEIREKGIPQASEYQAKVMEQLSNLREKMTPLVQEFRERLTPYAENLKNRLISFLDELQKSVA
unfolding free energy (Gallus gallus, pH 7.4, 20 °C, GdnHCl, Fluorescence, Tris 50 mM, KCl 100 mM, reversible: yes): 2.93 kcal/mol
denaturant m value [5]: 2.78 kcal/mol/M
unfolding free energy [5]: 1.86 kcal/mol

B9: Bacteriorhodopsin wild type, P02945 (protein)
chain: MLELLPTAVEGVSQAQITGRPEWIWLALGTALMGLGTLYFLVKGMGVSDPDAKKFYAITTLVPAIAFTMYLSMLLGYGLTMVPFGGEQNPIYWARYADWLFTTPLLLLDLALLVDADQGTILALVGADGIMIGTGLVGALTKVYSYRFVWWAISTAAMLYILYVLFFGFTSKAESMRPEVASTFKVLRNVTVVLWSAYPVVWLIGSEGAGIVPLNIETLLFMVLDVSAKVGFGLILLRSRAIFGEAEAPEPSAGDGAAATSD
Tm [6]: 96 °C
unfolding enthalpy (calorimetric) [6]: 83.7 kcal/mol
Tm [7]: 85 °C
unfolding enthalpy (calorimetric) [7]: 23 kcal/mol
unfolding enthalpy (van 't Hoff) [7]: 76 kcal/mol
Tm (Halobacterium salinarum (strain ATCC 700922 / JCM 11081 / NRC-1), pH 7.5, Thermal, DSC, phosphate 190 mM, reversible: no): 95.1 °C
Tm (Halobacterium salinarum (strain ATCC 700922 / JCM 11081 / NRC-1), pH 7.9, Thermal, CD, glycylglycine 50 mM, NaCl 100 mM, reversible: no): 79 °C
Tm (Halobacterium salinarum (strain ATCC 700922 / JCM 11081 / NRC-1), pH 9.5, Thermal, DSC, carbonate 50 mM, NaCl 100 mM, reversible: no): 81 °C

B10: Head completion protein wild type, P68660 (protein)
chain: MTRQEELAAARAALHDLMTGKRVATVQKDGRRVEFTATSVSDLKKYIAELEVQTGMTQRRRGPAGFYV
unfolding free energy (Escherichia phage lambda, pH 8, 25 °C, Urea, CD, Tris 10 mM, reversible: yes): 2.91 kcal/mol and 3.27 kcal/mol
Tm (Escherichia phage lambda, pH 8, Thermal, CD, Tris 10 mM, reversible: yes): 71.6 °C and 71.8 °C

B11: Glycodelin wild type, P09466 (protein)
chain: MLCLLLTLGVALVCGVPAMDIPQTKQDLELPKLAGTWHSMAMATNNISLMATLKAPLRVHITSLLPTPEDNLEIVLHRWENNSCVEKKVLGEKTENPKKFKINYTVANEATLLDTDYDNFLFLCLQDTTTPIQSMMCQYLARVLVEDDEIMQGFIRAFRPLPRHLWYLLDLKQMEEPCRF
denaturant m value [8]: 1.5 kcal/mol/M
denaturant midpoint (higher = more stable) [8]: 3.5 M
unfolding free energy [8]: 5.4 kcal/mol
